One experiment concerns the target T1, human CCR2 (human, UniProt P41597 1-374).
T1 construct: whole, on cells; transiently expressed on HEK293 cells
Put plainly: flow cytometry, HEK293 with N-term FLAG-tagged human CCR2. From the text:
(§1) FIGS. 4A-4F depicts the binding data of hu.Ab3.H1L1 (FIG. 4A), hu.Ab4.H1L1 (FIG. 4B), and hu.Ab5.H1L1 (FIG. 4C), as well as the commercial anti-CCR8 mAbs murine anti-human CCR8 mAb 433H (BD Biosciences) (FIG. 4D), and murine anti-human CCR8 mAb L263G8 (Biolegend) (FIG. 4E), and the humanized anti-human Yoshida anti-CCR8 mAb (FIG. 4F), to HEK293 cells that were transiently transfected with N-term FLAG-tagged plasmids encoding for human GPCRs (CCR2, CCR3, CCR4, CCR5, CCR8, CXCR4, ACKR2, and ACKR4), hCCR8 constructs, or with a mock construct using transIT X2 (reagent:DNA=3:1).
To confirm the selectivity to CCR8, the binding of hu.Ab3.H1L1, hu.Ab4.H1L1, and hu.Ab5.H1L1, as well as the Yoshida humanized anti-human CCR8, murine anti-human CCR8 mAb L263G8 (Biolegend, Commercial Ab) and murine anti-human CCR8 mAb 433H (BD Biosciences, Commercial Ab), were characterized by flow cytometry on HEK293 cells that were transiently transfected with plasmids encoding for FLAG-tagged other related human GPCRs (CCR2-5, CXCR4, ACKR2, and ACKR4). Cell surface expression of each GPCR was confirmed by staining with an anti-FLAG antibody control. In particular, HEK293 cells were transfected with N-term FLAG-tagged human CCR2, CCR3, CCR4, CCR5, CXCR4, ACKR2, ACKR4, hCCR8 constructs, or with a Mock construct using transIT X2 (reagent:DNA=3:1) for 24 hours, and surface stained with various anti-hCCR8 monoclonal antibodies at 5 ug/ml, or rabbit anti-Flag pAb (Sigma) followed by AF647-anti-hIgG or AF647-anti-RbIgG respectively. Antibodies hu.Ab4.H1L1, and hu.Ab5.H1L1, only stained the hCCR8-containing cells, confirming their specificity to hCCR8. […] Thus, the CCR8 selective hu.Ab4.H1L1 and hu.Ab5.H1L1 antibodies with the best ADCC activities were carried forward.
(In flow cytometry, cells or beads pass a laser one at a time.)

The target in a further experiment is T2, human ACKR2 (human, UniProt O00590 1-384).
T2 construct: whole, on cells; transiently expressed on HEK293 cells
T2 sequence (looked up): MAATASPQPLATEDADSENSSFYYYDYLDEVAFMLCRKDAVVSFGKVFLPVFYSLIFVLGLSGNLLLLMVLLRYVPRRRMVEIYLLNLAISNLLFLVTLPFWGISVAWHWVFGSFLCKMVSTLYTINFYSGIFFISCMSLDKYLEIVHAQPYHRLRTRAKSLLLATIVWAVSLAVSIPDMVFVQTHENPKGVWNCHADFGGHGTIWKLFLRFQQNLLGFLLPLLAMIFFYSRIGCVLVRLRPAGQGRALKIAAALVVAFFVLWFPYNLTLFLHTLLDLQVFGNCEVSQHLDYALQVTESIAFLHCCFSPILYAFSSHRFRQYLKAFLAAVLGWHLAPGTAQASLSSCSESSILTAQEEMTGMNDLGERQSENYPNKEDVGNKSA
Nature of the experiment: flow cytometry, HEK293 with N-term FLAG-tagged human ACKR2.
Source text: as §1
To confirm the selectivity to CCR8, the binding of hu.Ab3.H1L1, hu.Ab4.H1L1, and hu.Ab5.H1L1, as well as the Yoshida humanized anti-human CCR8, murine anti-human CCR8 mAb L263G8 (Biolegend, Commercial Ab) and murine anti-human CCR8 mAb 433H (BD Biosciences, Commercial Ab), were characterized by flow cytometry on HEK293 cells that were transiently transfected with plasmids encoding for FLAG-tagged other related human GPCRs (CCR2-5, CXCR4, ACKR2, and ACKR4). Cell surface expression of each GPCR was confirmed by staining with an anti-FLAG antibody control. […]

A further experiment addresses T3, GST-FcgR3a.V158 (UniProt P08637 17-208, limits assumed).
T3 construct: Captured by anti-GST antibody on ELISA plate; also called FcgR3a.V158 protein; Fcgamma RIIIa V158; not shown: GST tag
Put plainly: ELISA, GST-FcgR3a.V158 captured by anti-GST antibody. How it is done: The binding of fucosylated and afucosylated variants of hu.Ab5.H13L1 and hu.Ab4.H12L3 to both FcgR3a proteins by ELISA was studied. Briefly, an anti-GST antibody was coated on Nunc Maxisorp plates. GST-FcgR3a.V158 and GST-FcgR3a.F158 were captured at 500 ng/mL. Plates were then washed and then serially diluted anti-CCR8 antibodies starting at 100 ug/mL were incubated on the plate for 1 hour at room temperature. Plates were washed and bound antibody was detected by a HRP-conjugated anti-human IgG secondary antibody. Absorbance at 450 nm was measured by a plate reader. The data were fitted using a 4-parameter logistic curve in Softmax Pro.
In general terms: In an ELISA, binding on a coated surface is turned into a signal by an enzyme label.

The target in the next experiment is T4, cyno CCR8 (cynomolgus monkey, UniProt O97665 1-356 (rhesus entry)).
T4 construct: also called cynomolgus monkey CCR8
Nature of the experiment: radioligand competition on CHO cells stably expressing cyno CCR8: fixed 125I-anti-CCR8 against serially diluted unlabelled antibody. How it is done: (§2) Cell-based affinity measurements were performed using radiolabeled IgGs and CHO cell lines stably expressing human or cyno CCR8 for hu.Ab5.H13L1 and hu.Ab4.H12L3.
(§3) Briefly, stable CHO cells expressing human or cyno CCR8 were seeded in cold binding buffer (Opti-MEM+2% FBS+50 mM HEPES, pH 7.2+0.1% Sodium Azide) at 50,000 cells per well. A fixed concentration of ¹²⁵I-anti-CCR8 radiolabeled using the NEX244 Iodogen method (Perkin Elmer) was mixed with serially diluted anti-CCR8 antibodies starting at 20 nM or 50 nM. The antibody mixture was added to the cells and incubated at room temperature for 12 hours under gentle agitation. The cells and antibodies were then transferred to Millipore multiscreen filter plates. The filter plates were washed 4 times with 250 μL of cold binding buffer and dried for at least 30 minutes and the filters were punched into 5 mL polystyrene tubes. The radioactivity was measured using a Perkin Elmer Wallac Wizard 2470 Gamma Counter set at 1 count per minute with 0.8 counting efficiency. The data were fitted using the heterologous one site-fit Ki competitive binding model in GraphPad Prism.
(Displacement assays read how much labelled ligand stays bound in the presence of the test substance.)

A further experiment deals with T5, human CCR8 (human, UniProt P51685 1-355).
T5 construct: the assay field says which; also called hCCR8; huCCR8
Put plainly: radioligand competition, 125I-labelled IgG versus unlabelled IgG on CHO cells stably expressing human CCR8. How it is done:
as §2, §3

Changes are numbered by the printed parent chain.

T1 sequence (P41597 whole entry): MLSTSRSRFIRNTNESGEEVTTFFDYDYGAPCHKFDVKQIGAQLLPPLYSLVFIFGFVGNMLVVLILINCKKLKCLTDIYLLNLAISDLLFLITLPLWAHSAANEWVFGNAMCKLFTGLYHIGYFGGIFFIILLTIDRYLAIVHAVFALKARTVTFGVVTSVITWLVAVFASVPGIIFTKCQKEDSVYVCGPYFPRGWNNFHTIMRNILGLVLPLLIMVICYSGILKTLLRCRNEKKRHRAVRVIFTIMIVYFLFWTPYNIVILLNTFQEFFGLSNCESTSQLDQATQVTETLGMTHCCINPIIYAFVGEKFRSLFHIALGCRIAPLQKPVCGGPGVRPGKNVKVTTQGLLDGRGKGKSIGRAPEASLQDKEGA
T3 sequence (P08637 17-208 F176V limits assumed): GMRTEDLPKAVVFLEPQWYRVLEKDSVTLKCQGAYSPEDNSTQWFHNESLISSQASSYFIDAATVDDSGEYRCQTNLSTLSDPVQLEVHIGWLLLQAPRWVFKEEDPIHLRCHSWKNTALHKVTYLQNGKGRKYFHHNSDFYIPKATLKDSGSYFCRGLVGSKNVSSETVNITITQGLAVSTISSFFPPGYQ
T4 sequence (O97665 other isoform, or with tags, fused parts or gaps): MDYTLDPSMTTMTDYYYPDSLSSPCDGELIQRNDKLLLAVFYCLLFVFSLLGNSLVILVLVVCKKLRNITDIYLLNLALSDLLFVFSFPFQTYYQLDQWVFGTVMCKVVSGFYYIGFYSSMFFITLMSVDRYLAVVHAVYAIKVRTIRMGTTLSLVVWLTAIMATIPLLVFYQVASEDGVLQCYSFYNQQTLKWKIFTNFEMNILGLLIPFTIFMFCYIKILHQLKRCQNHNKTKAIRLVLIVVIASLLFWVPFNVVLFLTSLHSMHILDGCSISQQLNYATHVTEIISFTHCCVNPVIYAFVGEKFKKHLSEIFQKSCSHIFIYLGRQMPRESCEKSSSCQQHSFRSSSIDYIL

B1: hu.Ab5.H1L1 (antibody, human IgG1, kappa)
heavy: not shown
light: DIQVTQSPSSLSASVGDRVTITCQASENIANALAWYQQKPGKPPKFLIYGASNLASGVPSRFSGSGSGTDFTFTISSLQPEDIATYYCQQAYYGNSFVEGTFGGGTKVEIKRTVAAPSVFIFPPSDEQLKSGTASVVCLLNNFYPREAKVQWKVDNALQSGNSQESVTEQDSKDSTYSLSSTLTLSKADYEKHKVYACEVTHQGLSSPVTKSFNRGEC
As for B1, the binding result in the experiment with human CCR2 and in the experiment with human ACKR2 was “no binding (tested: 5 ug/ml)” throughout.

B2: hu.Ab5.H13L1 (antibody, human IgG1, kappa)
heavy: not shown
light: B1 light
notes: fucosylated human IgG1; also called Ab5 variant
As a reminder, the EC50 is the concentration needed to bring the measured effect to its halfway point. Low values mean greater potency, high ones weaker potency. A word on the Kd: it is the constant that tells how readily two partners part at equilibrium. B2 showed an EC50 with GST-FcgR3a.V158 of 0.39 mg/L. In addition, in the experiment with cyno CCR8, the “IC50 (read off the curve)” value is ~0.05 nM. In addition, in the experiment with human CCR8, the Kd was found to be 0.004 nM.

B3: hu.Ab4.H1L1 (antibody, human IgG1, kappa)
heavy: not shown
light: DYQMTQSPSSLSASVGDRVTITCQASQSISSYLSWYQQKPGKRPKLLIYKASTLASGVPSRFSGSGSGTDFTLTISSLQPEDFATYYCQQGYTSSNIDNIFGGGTKVEIKRTVAAPSVFIFPPSDEQLKSGTASVVCLLNNFYPREAKVQWKVDNALQSGNSQESVTEQDSKDSTYSLSSTLTLSKADYEKHKVYACEVTHQGLSSPVTKSFNRGEC
notes: also called hu.Ab4.H1Ll
Consider B3, for which the binding result with human CCR2 and in the experiment with human ACKR2 was “no binding (tested: 5 ug/ml)” in each case.

B4: hu.Ab4.H12L3 (antibody, human IgG1, kappa)
heavy: not shown
light: B3 light with R43A
notes: fucosylated human IgG1; also called huCCR8-Ab4.H12L3.hIgG1; Ab4 variant
In the experiment with GST-FcgR3a.V158, B4 came in with an EC50 of 0.388 mg/L. Moreover, the “IC50 (read off the curve)” value in the experiment with cyno CCR8 is ~0.1 nM. The Kd in the experiment with human CCR8 is 0.0284 nM.

For the origin of these results see patent US20230049152A1 (Genentech, published 2023).
